From publication PMC5892705

Assays:
[1] = target: human oxytocin receptor (human) (UniProt P30559)
[2] = target: human vasopressin V1a receptor (human) (UniProt P37288)
[3] = target: human oxytocin receptor (human) (UniProt P30559); remark: listed apart in the source

human oxytocin receptor (human), sequence (P30559 whole entry): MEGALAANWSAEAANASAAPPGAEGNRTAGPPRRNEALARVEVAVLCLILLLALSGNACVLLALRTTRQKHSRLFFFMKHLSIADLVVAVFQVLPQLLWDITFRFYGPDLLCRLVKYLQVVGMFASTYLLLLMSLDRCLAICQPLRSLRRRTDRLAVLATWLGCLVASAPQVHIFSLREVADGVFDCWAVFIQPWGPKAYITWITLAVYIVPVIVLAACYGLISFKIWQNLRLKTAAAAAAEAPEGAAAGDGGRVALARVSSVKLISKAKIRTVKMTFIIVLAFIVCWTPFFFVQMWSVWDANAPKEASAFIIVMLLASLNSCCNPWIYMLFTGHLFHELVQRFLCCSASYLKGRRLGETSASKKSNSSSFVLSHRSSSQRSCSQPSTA
Oxytocin, sequence (P01178 whole entry, looked up): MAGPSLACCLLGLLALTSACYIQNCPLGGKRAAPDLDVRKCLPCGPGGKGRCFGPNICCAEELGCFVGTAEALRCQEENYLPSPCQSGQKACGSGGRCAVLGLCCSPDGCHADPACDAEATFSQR
human vasopressin V1a receptor (human), sequence (P37288 whole entry): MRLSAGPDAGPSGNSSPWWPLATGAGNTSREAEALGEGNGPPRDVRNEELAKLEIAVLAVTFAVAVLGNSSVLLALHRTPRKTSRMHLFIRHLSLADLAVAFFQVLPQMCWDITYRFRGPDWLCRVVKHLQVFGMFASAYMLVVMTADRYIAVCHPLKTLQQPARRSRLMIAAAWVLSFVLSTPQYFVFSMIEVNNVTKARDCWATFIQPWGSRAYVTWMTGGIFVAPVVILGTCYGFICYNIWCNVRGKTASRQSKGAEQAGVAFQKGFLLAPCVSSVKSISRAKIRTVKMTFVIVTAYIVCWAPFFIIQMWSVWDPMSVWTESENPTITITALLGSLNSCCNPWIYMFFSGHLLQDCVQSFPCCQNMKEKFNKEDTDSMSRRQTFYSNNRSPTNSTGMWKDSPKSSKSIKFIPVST

| FLIPR Ca2+ mobilization, Emax [1] | maximal intracellular Ca2+ in human cardiomyocytes (FLIPR), EC50 [2] | tissue bath, contraction amplitude of strips of pregnant human myometrium, EC50 [3] | Substance |
| --- | --- | --- | --- |
| 59% | – | – | d[Se-Se]-OT-OH (peptide) |
| – | 174 nM | 1.14 nM | Oxytocin (from UniProt P01178 20-28) (peptide) |
